Test results published in US20240116985A1 (published 2024).
Starred links: 1 amine or outer side, 2 acyl side, 3 side chain; linkers in the order of their positions; H or OH if unused. Positions of bridges follow the written chain, without caps; N, C: chain ends. Non-standard residues stand in square brackets, D forms with d. Primed or numbered codes have the meaning given here. B5(26) = 2-amino-2-(pent-4-en-1-yl)hept-6-enoic acid (bis-pentenylglycine), stitching residue carrying two staples, C=CCCCC(CCCC=C)(N[*:1])C(=O)[*:2]; PyrS2″ = (S)-3-amino-1-((pent-4-en-1-yloxy)carbonyl)pyrrolidine-3-carboxylic acid (stapling residue), C=CCCCOC(=O)N1CC[C@@](N[*:1])(C(=O)[*:2])C1; PyrS3″ = (S)-3-amino-1-((hex-5-en-1-yloxy)carbonyl)pyrrolidine-3-carboxylic acid (stapling residue), C=CCCCCOC(=O)N1CC[C@@](N[*:1])(C(=O)[*:2])C1; (TfePpz)GlnR = (S)-2-amino-5-oxo-5-(4-(2,2,2-trifluoroethyl)piperazin-1-yl)pentanoic acid, O=C(CC[C@H](N[*:1])C(=O)[*:2])N1CCN(CC(F)(F)F)CC1; B5(23) = 2-amino-2-(pent-4-en-1-yl)hept-6-enoic acid (2,2-bis(4-pentenyl)glycine), stitching residue, C=CCCCC(CCCC=C)(N[*:1])C(=O)[*:2]; B5(24) = 2-amino-2-(pent-4-en-1-yl)hept-6-enoic acid, 2,2-bis(4-pentenyl)glycine (stitching residue), C=CCCCC(CCCC=C)(N[*:1])C(=O)[*:2]; B5(4) = 2,2-bis(4-pentenyl)glycine = 2-amino-2-(pent-4-en-1-yl)hept-6-enoic acid (stitching residue), C=CCCCC(CCCC=C)(N[*:1])C(=O)[*:2]; B5(21) = 2-amino-2-(pent-4-en-1-yl)hept-6-enoic acid, bis(4-pentenyl)glycine (stitching residue), C=CCCCC(CCCC=C)(N[*:1])C(=O)[*:2]; B5(6) = 2-amino-2-(pent-4-en-1-yl)hept-6-enoic acid (bis(4-pentenyl)glycine), stitching residue, C=CCCCC(CCCC=C)(N[*:1])C(=O)[*:2]; TfeGA = (S)-2-amino-3-((carboxymethyl)(2,2,2-trifluoroethyl)amino)propanoic acid, O=C([C@H](CN(CC(=O)[*:3])CC(F)(F)F)N[*:1])[*:2]; B5(12) = 2-amino-2-(pent-4-en-1-yl)hept-6-enoic acid (two olefin side chains), C=CCCCC(CCCC=C)(N[*:1])C(=O)[*:2]; B5(19) = 2-amino-2-(pent-4-en-1-yl)hept-6-enoic acid (bis(4-pentenyl)glycine), C=CCCCC(CCCC=C)(N[*:1])C(=O)[*:2]; S(OMe) = O-methyl-L-serine, COC[C@H](N[*:1])C(=O)[*:2]; Phe(2-NO2) = N[C@@H](Cc1ccccc1[N+](=O)[O-])C(=O)O; Phe(3-CONH2) = NC(=O)c1cccc(C[C@H](N)C(=O)O)c1; Phe(3-COOH) = N[C@@H](Cc1cccc(C(=O)O)c1)C(=O)O; Phe(2-Br) = N[C@@H](Cc1ccccc1Br)C(=O)O; Phe(2-Cl) = N[C@@H](Cc1ccccc1Cl)C(=O)O; Phe(3-F) = N[C@@H](Cc1cccc(F)c1)C(=O)O; Phe(4-F) = N[C@@H](Cc1ccc(F)cc1)C(=O)O; His(τ-Me) = Cn1cnc(C[C@H](N)C(=O)O)c1; Phe(2-F) = N[C@@H](Cc1ccccc1F)C(=O)O; Bta = N[C@@H](Cc1csc2ccccc12)C(=O)O; His(π-Me) = Cn1cncc1C[C@H](N)C(=O)O; Lys(iPr) = CC(C)NCCCC[C@H](N)C(=O)O; αAllylPro = C=CC[C@@]1(C(=O)O)CCCN1; tBuAla = CC(C)(C)C[C@H](N)C(=O)O; 2Thi = N[C@@H](Cc1cccs1)C(=O)O; 3Thi = N[C@@H](Cc1ccsc1)C(=O)O; Cha = N[C@@H](CC1CCCCC1)C(=O)O; S8 = C=CCCCCCC[C@](C)(N)C(=O)O; PyrS2(4) = not defined here; hSer = N[C@@H](CCO)C(=O)O; Nle = CCCC[C@H](N)C(=O)O; Aib = CC(C)(N)C(=O)O

B1: I-440 (peptide)
peptide: XDAXDEAAFNXHXQ
modifications: not fully specified; N-terminal Ac, C-terminal NH2; non-natural PL3(1), B5(4), S8(11), 1meH(12), BztA(13); staples PL3-B5 and B5-S8 (olefin metathesis)
notes: Stapled peptide composition
B2: I-754 (peptide)
peptide: XDLXDEAAFNXFXT
modifications: not fully specified; Ac-PL3-Asp-Leu-B5-Asp-Glu-Ala-Ala-Phe-Asn-S8-Phe-BztA-dThr-NH2: N-terminal acetyl; C-terminal amide; PL3 at 1, B5 at 4, S8 at 11 (stapled 1-4 and 4-11 by olefin metathesis); BztA at 13; D-Thr at 14
notes: Stapled peptide; also called Ac-PL3-Asp-Leu-B5-Asp-Glu-Ala-Ala-Phe-Asn-S8-Phe-BztA-dThr-NH2
B3: I-755 (peptide)
peptide: Ac-[αAllylPro]DL[B5(4)]DEAAFN[S8]F[Bta][dT]-NH2
modifications: staple 1-4, 4-11; also: later eluting HPLC peak (staple isomer)
notes: as for B2
B4: I-463 (peptide)
peptide: Ac-[αAllylPro]DA[B5(21)]DEAAFN[PyrS3″]F[Bta]Q-NH2
modifications: staple 1-4, 4-11; also: earlier-eluting HPLC staple isomer
notes: Stapled peptide; earlier-eluting HPLC peak (staple isomer composition)
B5: I-464 (peptide)
peptide: Ac-[αAllylPro]DA[B5(21)]DEAAFN[PyrS3″]F[Bta]Q-NH2
modifications: staple 1-4, 4-11; not fully specified; printed as Ac-PL3-Asp-Ala-B5-Asp-Glu-Ala-Ala-Phe-Asn-PyrS3-Phe-BztA-Gln-NH2
notes: Stapled peptide; later-eluting HPLC peak (staple isomer composition)
B6: I-469 (peptide)
peptide: Ac-[αAllylPro]DI[B5(6)]DDAAFN[S8]F[Bta]H-NH2
modifications: staple 1-4, 4-11; also: staple isomer composition: earlier-eluting HPLC peak
notes: as for B4
B7: I-467 (peptide)
peptide: Ac-[αAllylPro]DI[B5(6)]DDAAFN[S8]F[Bta]Q-NH2
modifications: staple 1-4, 4-11; also: staple isomer composition: earlier-eluting HPLC peak
notes: as for B4
B8: I-468 (peptide)
peptide: Ac-[αAllylPro]DI[B5(6)]DDAAFN[S8]F[Bta]Q-NH2
modifications: staple 1-4, 4-11; also: staple isomer composition: later-eluting HPLC peak
notes: as for B5
B9: I-1913 (peptide)
peptide: Ac-[αAllylPro]D[tBuAla][B5(12)]D[Phe(3-COOH)][Nle]AFL[PyrS2(4)][3Thi][Bta]F-NH2
modifications: staple 1-4, 4-11; not fully specified; printed as Ac-PL3-Asp-Npg-B5-Asp-3COOHF-nLeu-Ala-Phe-Leu-PyrS2-3Thi-BztA-Phe-NH2; reading uncertain
B10: I-1914 (peptide)
peptide: Ac-[αAllylPro]D[tBuAla][B5(12)]D[Phe(3-COOH)][Aib]AFL[PyrS2(4)][3Thi][Bta]F-NH2
modifications: staple 1-4, 4-11; not fully specified; printed as Ac-PL3-Asp-Npg-B5-Asp-3COOHF-Aib-Ala-Phe-Leu-PyrS2-3Thi-BztA-Phe-NH2; reading uncertain
B11: I-1915 (peptide)
peptide: Ac-[αAllylPro]D[tBuAla][B5(4)]D[Phe(3-COOH)][Lys(iPr)]AFL[PyrS2(4)][3Thi][Bta]A-NH2
modifications: staple 1-4, 4-11; not fully specified; printed as Ac-PL3-Asp-Npg-B5-Asp-3COOHF-iPrLys-Ala-Phe-Leu-PyrS2-3Thi-BztA-Ala-NH2; reading uncertain
B12: I-1916 (peptide)
peptide: Ac-[αAllylPro]D[tBuAla][B5(4)]D[Phe(3-COOH)]HAFL[PyrS2(4)][3Thi][Bta]A-NH2
modifications: staple 1-4, 4-11; not fully specified; printed as Ac-PL3-Asp-Npg-B5-Asp-3COOHF-His-Ala-Phe-Leu-PyrS2-3Thi-BztA-Ala-NH2; reading uncertain
B13: I-1917 (peptide)
peptide: Ac-[αAllylPro]D[tBuAla][B5(4)]D[Phe(3-COOH)]KAFL[PyrS2(4)][3Thi][Bta]A-NH2
modifications: staple 1-4, 4-11; not fully specified; printed as Ac-PL3-Asp-Npg-B5-Asp-3COOHF-Lys-Ala-Phe-Leu-PyrS2-3Thi-BztA-Ala-NH2; reading uncertain
B14: I-1919 (peptide)
peptide: Ac-[αAllylPro]D[tBuAla][B5(4)]D[Phe(3-COOH)][Nle]AFL[PyrS2(4)][3Thi][Bta]A-NH2
modifications: staple 1-4, 4-11; not fully specified; printed as Ac-PL3-Asp-Npg-B5-Asp-3COOHF-nLeu-Ala-Phe-Leu-PyrS2-3Thi-BztA-Ala-NH2; reading uncertain

target: T1, full-length beta-Catenin (Uniprot ID P35222) (Homo sapiens (Human), UniProt P35222 1-781); assay: fluorescence polarization competition; peptide titrated against 10 nM full-length beta-catenin + 10 nM 5FAM-TCF4(10-53) probe
T1 construct: The assay text says 'full-length'; also called bCat; B-Catenin
T1 sequence: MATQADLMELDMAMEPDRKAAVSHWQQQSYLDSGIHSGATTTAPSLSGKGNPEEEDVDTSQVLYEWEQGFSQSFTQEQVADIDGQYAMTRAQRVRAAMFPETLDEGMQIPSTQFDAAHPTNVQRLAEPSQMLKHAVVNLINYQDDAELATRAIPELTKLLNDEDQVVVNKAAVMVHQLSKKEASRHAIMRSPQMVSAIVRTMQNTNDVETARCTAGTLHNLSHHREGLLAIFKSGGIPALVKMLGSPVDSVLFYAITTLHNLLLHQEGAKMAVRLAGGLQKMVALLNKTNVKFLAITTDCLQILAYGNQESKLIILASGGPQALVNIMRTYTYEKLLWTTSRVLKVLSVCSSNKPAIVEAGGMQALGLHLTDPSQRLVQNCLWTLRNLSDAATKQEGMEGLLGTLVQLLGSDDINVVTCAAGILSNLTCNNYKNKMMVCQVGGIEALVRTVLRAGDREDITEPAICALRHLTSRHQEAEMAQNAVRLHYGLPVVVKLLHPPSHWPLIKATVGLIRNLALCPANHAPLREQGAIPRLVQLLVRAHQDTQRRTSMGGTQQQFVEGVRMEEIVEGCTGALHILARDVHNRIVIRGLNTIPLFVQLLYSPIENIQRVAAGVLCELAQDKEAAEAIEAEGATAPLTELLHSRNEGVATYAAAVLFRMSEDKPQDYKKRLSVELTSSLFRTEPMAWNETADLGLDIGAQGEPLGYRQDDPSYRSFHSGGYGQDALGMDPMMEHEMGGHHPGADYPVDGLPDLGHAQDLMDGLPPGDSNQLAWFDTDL
Protocol: (§1) The plate was incubated protected from light for 60 minutes at 20° C. prior to read. Reads were performed on a CLARIOstar plate reader (BMG Labtech) in duplicate, and data were fitted to a 1:1 binding model with hill slope using an in-house script. All provided concentrations are final concentrations.

Binder | IC50
Ac-[αAllylPro]DA[B5(23)]DEAAFT[S8]F[Bta]H-NH2 (staple 1-4, 4-11, Stapled peptide composition) [I-420] | 128 nM
Ac-[αAllylPro]DA[B5(23)]DEAAFT[S8]F[Bta]Q-NH2 (staple 1-4, 4-11, Stapled peptide composition) [I-423] | 105 nM
Ac-[αAllylPro]DA[B5(24)]DEAAF[S(OMe)][S8]F[Bta]Q-NH2 (staple 1-4, 4-11, Stapled peptide composition) [I-433] | 136 nM
Ac-[αAllylPro]DA[B5(26)]DEAAFN[S8][His(π-Me)][Bta]Q-NH2 (staple 1-4, 4-11, Stapled peptide composition) [I-438] | 5000 nM
Ac-[αAllylPro]DA[B5(21)]DEAAFN[S8][His(τ-Me)][Bta]Q-NH2 (staple 1-4, 4-11, Stapled peptide composition) [I-439] | 5000 nM
B1 | 5000 nM
Ac-[αAllylPro]DA[B5(24)]DEAAFN[S8][Phe(2-F)][Bta]Q-NH2 (staple 1-4, 4-11, Stapled peptide composition) [I-434] | 67.5 nM
Ac-[αAllylPro]DA[B5(24)]DEAAFN[S8][Phe(2-Cl)][Bta]Q-NH2 (staple 1-4, 4-11, Stapled peptide composition) [I-435] | 70 nM
Ac-[αAllylPro]DA[B5(24)]DEAAFN[S8][Phe(2-Br)][Bta]Q-NH2 (staple 1-4, 4-11, Stapled peptide composition) [I-436] | 56 nM

target: T2, full-length beta-Catenin (Uniprot ID P35222) (Homo sapiens (Human), UniProt P35222 1-781); assay: fluorescence polarization competition; full-length beta-catenin with 5FAM-TCF4(10-53) probe as competitor
T2 construct: also called bCat; B-Catenin
T2 sequence: T1 sequence
Protocol: as §1

Binder | IC50
B2 | 115 nM
B3 | 88 nM

target: T3, full-length beta-Catenin (Uniprot ID P35222) (Homo sapiens (Human), UniProt P35222 1-781); assay: fluorescence polarization competition; full-length beta-catenin, competitor 5FAM-TCF4(10-53) probe
T3 construct: also called bCat; B-Catenin
T3 sequence: T1 sequence
Summary of the method: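 Fluorescence polarization was read in duplicate after the plate sat 60 minutes at 20° C. shielded from light. Values come from fitting to a 1:1 binding model with hill slope.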

Binder | IC50
Ac-[αAllylPro]DA[B5(21)]DEAAFN[S8][Phe(2-NO2)][Bta]Q-NH2 (staple 1-4, 4-11, Stapled peptide composition) [I-441] | 133 nM
Ac-[αAllylPro]DA[B5(21)]DEAA[2Thi]Q[S8][Phe(3-F)]WQ-NH2 (staple 1-4, 4-11, Stapled peptide composition) [I-450] | 3720 nM
Ac-[αAllylPro]DA[B5(21)]DEAA[Phe(2-F)]N[S8]F[Bta]Q-NH2 (staple 1-4, 4-11, Stapled peptide composition) [I-453] | 1550 nM
Ac-[αAllylPro]DA[B5(21)]DEAA[Phe(3-F)]N[S8]F[Bta]Q-NH2 (staple 1-4, 4-11, Stapled peptide composition) [I-454] | 125 nM
Ac-[αAllylPro]DA[B5(21)]DEAA[Phe(4-F)]N[S8]F[Bta]Q-NH2 (staple 1-4, 4-11, Stapled peptide composition) [I-455] | 83.5 nM
B4 | 92 nM
B5 | 57 nM
B6 | 27 nM
B7 | 44 nM
B8 | 27 nM

target: T4, B-cat-Halo (beta-catenin HaloTag construct transfected into HEK293 cells) (UniProt P35222 1-781); assay: cell-based or functional assay
T4 sequence (looked up): T1 sequence

Binder | NanoBRET Abs IC50
B9 | 17500 nM
B10 | 6400 nM
B11 | 20200 nM
B12 | 9200 nM
B13 | 37700 nM
B14 | 4700 nM
Ac-[αAllylPro]N[Cha][B5(19)]DQ[Lys(iPr)]AFN[PyrS2″][Phe(3-CONH2)][Bta][hSer]-NH2 (staple 1-4, 4-11) [I-1929] | > 20000 nM
Ac-[αAllylPro]D[tBuAla][B5(19)]D[TfeGA]AAF[(TfePpz)GlnR][PyrS2″][3Thi][Bta]Q-NH2 (staple 1-4, 4-11) [I-1935] | 7100 nM
